From patent publication US20240317834A1, “COMPOSITIONS AND METHODS FOR NEUROLOGICAL DISEASES” (CODA BIOTHERAPEUTICS, INC., priority 2020, published 2024)
Changes are numbered by the printed parent chain. Names and notes keep the numbering of the source.

Tested on: Lenti-X 293T cells
Assay: YFP fluorescence quenching anion reporter plate reader assay of engineered receptors stimulated with acetylcholine or a non-native ligand
Assay type: cell-based
Settings: for percent quench of YFP fluorescence, 10 uM ach: acetylcholine 10 uM; for percent quench of YFP fluorescence, 30 uM ach: acetylcholine 30 uM; for percent quench of YFP fluorescence, 100 uM ach: acetylcholine 100 uM; for percent quench of YFP fluorescence, 300 uM ach: acetylcholine 300 uM; for percent quench of YFP fluorescence, 1 mM ach: acetylcholine 1 mM; for percent quench of YFP fluorescence, 3 mM ach: acetylcholine 3 mM
In short: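 YFP quench was followed for about 1 min 43 s after ligand delivered in iodide-based ECS, pH 7.2. Values are end-of-read fluorescence (last 10 s) divided by the pre-ligand baseline (15 s). Cells were LX293T, transfected with receptor DNA a day before the assay.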

B1: CODA1157: engineered chimeric LGIC receptor, Q139E, S172D in SEQ ID NO: 33 (protein)
chain: MRCSPGGVWLALAASLLHVSLQGEFQRKLYKELVKNYNPLERPVANDSQPLTVYFSLSLLQIMDVDEKNQVLTTNIWLQMSWTDHYLQWNVSEYPGVKTVRFPDGQIWKPDILLYNSADERFDATFHTNVLVNSSGHCEYLPPGIFKSSCPMDLKNFPMDVQTCKLKFGSWDYGGWSLDLQMQEADISGYIPNGEWDLVGIPGKRSERFYECCKEPYPDVTFTVTMRRRMGYYLIQMYIPSLLIVILSWISFWINMDAAPARVGLGITTVLTMTTQSSGSRASLPKVSYVKAIDIWMAVCLLFVFSALLEYAAVNFVSRQHKELLRFRRKRRHHKSPMLNLFQEDEAGEGRFNFSAYGMGPACLQAKDGISVKGANNSNTTNPPPAPSKSPEEMRKLFIQRAKKIDKISRIGFPMAFLIFNMFYWIIYKIVRREDVHNQ
modifications: synthetic sequence of chimeric LGIC
B1 was tested, and the “YFP fluorescence quenching using CNL001” value (1 nM CNL001, first column) was 68.362%, the “YFP fluorescence quenching using CNL001” value (1 nM CNL001, second column) was 69.495% and the “YFP fluorescence quenching using Varenicline” value (3 nM var, first column) was −0.225. The “YFP fluorescence quenching using Varenicline” value (3 nM var, second column) was −1.954, the “YFP fluorescence quenching using CNL001” value (10 nM CNL001, first column) was 75.078% and the “YFP fluorescence quenching using CNL001” value (10 nM CNL001, second column) was 74.193%. For the same molecule, the “YFP fluorescence quenching using Varenicline” value (30 nM var, first column) was 1.269, the “YFP fluorescence quenching using Varenicline” value (30 nM var, second column) was 5.972 and the “YFP fluorescence quenching using CNL001” value (50 nM CNL001, first column) was 77.481%. The “YFP fluorescence quenching using CNL001” value (50 nM CNL001, second column) was 77.205%, the “YFP fluorescence quenching using ABT-126” value (50 nM abt) was −26.77% and the “YFP fluorescence quenching using CNL001” value (100 nM CNL001, first column) was 77%. The “YFP fluorescence quenching using CNL001” value (100 nM CNL001, second column) was 77.042%, the “YFP fluorescence quenching using CNL002” value (100 nM CNL002) was 80.62% and the “YFP fluorescence quenching using ABT-126” value (100 nM abt) was −24.64%. For the same molecule, the “YFP fluorescence quenching using ABT-126” value (300 nM abt) was −10.64%, the “YFP fluorescence quenching using Varenicline” value (300 nM var, first column) was 6.84 and the “YFP fluorescence quenching using Varenicline” value (300 nM var, second column) was 5.943. The “YFP fluorescence quenching using Varenicline” value (500 nM var, first column) was 8.717, the “YFP fluorescence quenching using Varenicline” value (500 nM var, second column) was 6.41 and the “YFP fluorescence quenching using CNL001” value (1 uM CNL001, first column) was 78.2%. For the same molecule, the “YFP fluorescence quenching using CNL001” value (1 uM CNL001, second column) was 76.244%, the “YFP fluorescence quenching using CNL002” value (1 uM CNL002) was 81.32% and the “YFP fluorescence quenching using ABT-126” value (1 uM abt) was 19.57%. The “YFP fluorescence quenching using Varenicline” value (1 uM var, first column) was 5.635, the “YFP fluorescence quenching using Varenicline” value (1 uM var, second column) was 7.068 and the “YFP fluorescence quenching using ABT-126” value (10 uM abt) was 55.64%. For the same molecule, the “percent quench of YFP fluorescence, 10 uM ach” value was −36.89%, the “percent quench of YFP fluorescence, 30 uM ach” value was −37.78% and the “percent quench of YFP fluorescence, 100 uM ach” value was −25.67%. For the same molecule, the “percent quench of YFP fluorescence, 300 uM ach” value was −18.94%, the “percent quench of YFP fluorescence, 1 mM ach” value was 16.38% and the “percent quench of YFP fluorescence, 3 mM ach” value was 45.71%.

B2: CODA1138: engineered chimeric LGIC receptor, W77F, R101F, L131D in SEQ ID NO: 33 (protein)
chain: B1 chain with W77F, R101F, L131D, E139Q, D172S
modifications: synthetic sequence of chimeric LGIC
B2 was tested, and the “YFP fluorescence quenching using CNL001” value (1 nM CNL001, first column) was −6.175%, the “YFP fluorescence quenching using CNL001” value (1 nM CNL001, second column) was 5.89% and the “YFP fluorescence quenching using CNL002” value (1 nM CNL002) was −2.209%. For the same molecule, the “YFP fluorescence quenching using Varenicline” value (3 nM var, first column) was 3.893, the “YFP fluorescence quenching using Varenicline” value (3 nM var, second column) was 1.107 and the “YFP fluorescence quenching using CNL001” value (10 nM CNL001, first column) was −2.032%. The “YFP fluorescence quenching using CNL001” value (10 nM CNL001, second column) was 7.601%, the “YFP fluorescence quenching using CNL002” value (10 nM CNL002) was 43.044% and the “YFP fluorescence quenching using Varenicline” value (30 nM var, first column) was 0.972. For the same molecule, the “YFP fluorescence quenching using Varenicline” value (30 nM var, second column) was 0.872, the “YFP fluorescence quenching using CNL001” value (50 nM CNL001, first column) was 9.263% and the “YFP fluorescence quenching using CNL001” value (50 nM CNL001, second column) was 4.423%. For the same molecule, the “YFP fluorescence quenching using CNL002” value (50 nM CNL002) was 73.418%, the “YFP fluorescence quenching using ABT-126” value (50 nM abt) was −11.71% and the “YFP fluorescence quenching using CNL001” value (100 nM CNL001, first column) was 24%. The “YFP fluorescence quenching using CNL001” value (100 nM CNL001, second column) was 30.448%, the “YFP fluorescence quenching using CNL002” value (100 nM CNL002) was 81.66% and the “YFP fluorescence quenching using ABT-126” value (100 nM abt) was −5.13%. For the same molecule, the “YFP fluorescence quenching using ABT-126” value (300 nM abt) was 15.09%, the “YFP fluorescence quenching using Varenicline” value (300 nM var, first column) was 2.282 and the “YFP fluorescence quenching using Varenicline” value (300 nM var, second column) was −0.288. The “YFP fluorescence quenching using Varenicline” value (500 nM var, first column) was 3.637, the “YFP fluorescence quenching using Varenicline” value (500 nM var, second column) was −1.804 and the “YFP fluorescence quenching using CNL001” value (1 uM CNL001, first column) was 73.823%. The “YFP fluorescence quenching using CNL001” value (1 uM CNL001, second column) was 73.271%, the “YFP fluorescence quenching using CNL002” value (1 uM CNL002) was 81.69% and the “YFP fluorescence quenching using ABT-126” value (1 uM abt) was 56.63%. For the same molecule, the “YFP fluorescence quenching using Varenicline” value (1 uM var, first column) was −1.84, the “YFP fluorescence quenching using Varenicline” value (1 uM var, second column) was 6.36 and the “YFP fluorescence quenching using ABT-126” value (10 uM abt) was 75.93%. For the same molecule, the “percent quench of YFP fluorescence, 10 uM ach” value was −12.92%, the “percent quench of YFP fluorescence, 30 uM ach” value was −15.36% and the “percent quench of YFP fluorescence, 100 uM ach” value was −19.35%. For the same molecule, the “percent quench of YFP fluorescence, 300 uM ach” value was −14.79%, the “percent quench of YFP fluorescence, 1 mM ach” value was 37.5% and the “percent quench of YFP fluorescence, 3 mM ach” value was 61.73%.
